Source: PMC11774777, “A PDZ-kinase allosteric relay mediates Par complex regulator exchange” (The Journal of Biological Chemistry, 2024)
Like-named read-outs stand apart in the source and are kept apart here.

Experiments:
[1] = molecular target: T1, GST-fused Par-3 PDZ2 with its associated basic region (BR-PDZ2) (UniProt O96782 1-1464)
T1 chain: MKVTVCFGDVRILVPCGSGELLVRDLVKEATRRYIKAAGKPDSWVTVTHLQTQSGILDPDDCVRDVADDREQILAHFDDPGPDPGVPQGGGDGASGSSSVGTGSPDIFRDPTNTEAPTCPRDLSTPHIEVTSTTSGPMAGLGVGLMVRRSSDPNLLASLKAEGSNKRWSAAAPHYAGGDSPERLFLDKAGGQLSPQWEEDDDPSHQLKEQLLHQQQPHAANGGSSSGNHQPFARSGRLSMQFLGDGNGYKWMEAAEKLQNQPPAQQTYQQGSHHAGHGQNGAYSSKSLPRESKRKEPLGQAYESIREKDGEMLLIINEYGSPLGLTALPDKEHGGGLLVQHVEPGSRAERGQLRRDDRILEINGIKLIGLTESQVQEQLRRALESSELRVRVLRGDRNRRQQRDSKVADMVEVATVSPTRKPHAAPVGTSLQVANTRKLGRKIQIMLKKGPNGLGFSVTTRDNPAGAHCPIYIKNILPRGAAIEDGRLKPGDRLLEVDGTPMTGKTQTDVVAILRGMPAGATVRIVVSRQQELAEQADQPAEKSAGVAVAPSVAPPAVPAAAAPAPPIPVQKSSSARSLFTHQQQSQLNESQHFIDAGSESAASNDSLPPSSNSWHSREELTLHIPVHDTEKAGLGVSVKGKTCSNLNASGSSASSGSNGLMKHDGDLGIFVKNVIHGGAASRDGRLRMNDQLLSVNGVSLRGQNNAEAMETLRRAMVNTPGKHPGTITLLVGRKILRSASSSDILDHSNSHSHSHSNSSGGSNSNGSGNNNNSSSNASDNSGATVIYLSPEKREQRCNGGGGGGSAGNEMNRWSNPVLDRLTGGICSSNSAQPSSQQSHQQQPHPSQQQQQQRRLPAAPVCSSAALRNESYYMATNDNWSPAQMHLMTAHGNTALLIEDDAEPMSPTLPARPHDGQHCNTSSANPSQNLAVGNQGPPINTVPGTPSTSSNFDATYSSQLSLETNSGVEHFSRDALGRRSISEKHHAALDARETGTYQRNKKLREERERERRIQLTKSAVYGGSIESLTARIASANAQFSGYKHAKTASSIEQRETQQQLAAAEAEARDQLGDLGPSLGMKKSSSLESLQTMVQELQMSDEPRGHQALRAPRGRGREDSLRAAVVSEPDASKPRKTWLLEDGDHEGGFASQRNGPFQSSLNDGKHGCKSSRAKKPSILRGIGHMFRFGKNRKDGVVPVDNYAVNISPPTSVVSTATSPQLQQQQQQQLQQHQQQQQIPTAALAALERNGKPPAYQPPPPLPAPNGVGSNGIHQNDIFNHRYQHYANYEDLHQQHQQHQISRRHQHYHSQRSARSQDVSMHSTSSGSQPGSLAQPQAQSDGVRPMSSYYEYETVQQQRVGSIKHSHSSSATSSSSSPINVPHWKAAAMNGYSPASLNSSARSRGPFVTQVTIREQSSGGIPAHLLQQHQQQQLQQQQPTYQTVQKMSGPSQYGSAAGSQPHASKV

[2] = molecular target: T1, GST-fused Par-3 PDZ2 with its …; assay: with Par-6 CRIB-PDZ added in trans
[3] = molecular target: T2, GST-fused Par-6 CRIB-PDZ (UniProt O97111 130-255); assay: pull-down; GST-Par-6 CRIB-PDZ on glutathione resin, Par complex ΔCRIB-PDZ with soluble Par-3 BR-PDZ2 added; same buffer, 60 min at RT; Coomassie, normalized band intensity of aPKC; conditions: both partners purified
T2 construct: Par-6, CRIB motif and PDZ domain; also called GST Par-6 CRIB-PDZ
T2 sequence (looked up): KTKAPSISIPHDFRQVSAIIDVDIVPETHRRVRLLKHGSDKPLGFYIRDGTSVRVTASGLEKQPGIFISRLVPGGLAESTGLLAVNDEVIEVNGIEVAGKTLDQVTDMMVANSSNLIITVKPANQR

Kd [1]: 161 µM
Kd [2]: 11.3 µM
fold increase of binding with Par-3 PDZ2 against without Par-3 [3]: > 20 fold
B1: Par complex ΔCRIB-PDZ (full-length aPKC plus the Par-6 PB1 domain) (complex)
chain 1: MQKMPSQILNDGSSVSLNSASMNMANTPNSITVKTAYNGQIIITTINKNISYEELCYEIRNICRFPLDQPFTIKWVDEENDPCTISTKMELDEAIRLYEMNFDSQLVIHVFPNVPQAPGLSCDGEDRSIYRRGARRWRKLYRVNGHIFQAKRFNRRAFCAYCQDRIWGLGRQGFKCIQCKLLVHKKCHKLVQKHCTDQPEPLVKERAEESSDPIPVPLPPLPYEAMSGGAEACETHDHAHIVAPPPPEDPLEPGTQRQYSLNDFELIRVIGRGSYAKVLMVELRRTRRIYAMKVIKKALVTDDEDIDWVQTEKHVFETASNHPFLVGLHSCFQTPSRLFFVIEFVRGGDLMYHMQRQRRLPEEHARFYAAEISLALNFLHEKGIIYRDLKLDNVLLDHEGHIKLTDYGMCKEGIRPGDTTSTFCGTPNYIAPEILRGEDYGFSVDWWALGVLLYEMLAGRSPFDLAGASENPDQNTEDYLFQVILEKTIRIPRSLSVRAASVLKGFLNKNPADRLGCHRESAFMDIVSHPFFKNMDWELLERKQVTPPFKPRLDSDRDLANFPPEFTGEAVQLTPDDDHVIDNIDQSEFEGFEYVNPLLMSLEDCV
chain 2: MSKNKINTTSATAASDTNLIEVKSKFDAEFRRWSFKRNEAEQSFDKFASLIEQLHKLTNIQFLILYIDPRDNDLLPINNDDNFGRALKTARPLLRVIVQRKDDLNEYSGFGTMKPRNLIGSILMGHTPV
notes: atypical PKC (aPKC), full length; Par-6, PB1 domain; The complex was His-purified; also called full-length aPKC with Par-6 PB1; source: HEK 293F, co-transfected, purified (cobalt resin, anion exchange)
